IntAct's records for PubMed 15992545

B1: Auxin-responsive protein IAA12 (Arabidopsis thaliana (Mouse-ear cress)), Q38830 (parent)
chain: MRGVSELEVGKSNLPAESELELGLGLSLGGGAWKERGRILTAKDFPSVGSKRSAESSSHQGASPPRSSQVVGWPPIGLHRMNSLVNNQAMKAARAEEGDGEKKVVKNDELKDVSMKVNPKVQGLGFVKVNMDGVGIGRKVDMRAHSSYENLAQTLEEMFFGMTGTTCREKVKPLRLLDGSSDFVLTYEDKEGDWMLVGDVPWRMFINSVKRLRIMGTSEASGLAPRRQEQKDRQRNNPV
partner: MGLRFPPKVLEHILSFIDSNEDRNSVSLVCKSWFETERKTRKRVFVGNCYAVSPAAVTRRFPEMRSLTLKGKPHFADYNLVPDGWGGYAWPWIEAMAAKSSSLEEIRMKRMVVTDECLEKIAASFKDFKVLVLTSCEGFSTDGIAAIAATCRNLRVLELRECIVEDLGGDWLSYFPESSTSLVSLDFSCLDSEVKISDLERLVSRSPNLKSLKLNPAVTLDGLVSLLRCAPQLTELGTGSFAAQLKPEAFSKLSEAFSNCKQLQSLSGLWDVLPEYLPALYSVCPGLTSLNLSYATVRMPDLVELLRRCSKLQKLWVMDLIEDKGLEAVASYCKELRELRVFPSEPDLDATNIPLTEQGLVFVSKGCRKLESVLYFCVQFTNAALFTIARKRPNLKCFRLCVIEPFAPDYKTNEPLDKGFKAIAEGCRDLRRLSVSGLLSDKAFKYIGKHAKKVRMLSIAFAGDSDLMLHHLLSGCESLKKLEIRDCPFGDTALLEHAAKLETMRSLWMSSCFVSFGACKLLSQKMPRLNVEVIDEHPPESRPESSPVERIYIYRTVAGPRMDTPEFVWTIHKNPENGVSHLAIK
B2: Auxin-responsive protein IAA12 (Arabidopsis thaliana (Mouse-ear cress)), Q38830 (parent)
chain: B1 chain
partner: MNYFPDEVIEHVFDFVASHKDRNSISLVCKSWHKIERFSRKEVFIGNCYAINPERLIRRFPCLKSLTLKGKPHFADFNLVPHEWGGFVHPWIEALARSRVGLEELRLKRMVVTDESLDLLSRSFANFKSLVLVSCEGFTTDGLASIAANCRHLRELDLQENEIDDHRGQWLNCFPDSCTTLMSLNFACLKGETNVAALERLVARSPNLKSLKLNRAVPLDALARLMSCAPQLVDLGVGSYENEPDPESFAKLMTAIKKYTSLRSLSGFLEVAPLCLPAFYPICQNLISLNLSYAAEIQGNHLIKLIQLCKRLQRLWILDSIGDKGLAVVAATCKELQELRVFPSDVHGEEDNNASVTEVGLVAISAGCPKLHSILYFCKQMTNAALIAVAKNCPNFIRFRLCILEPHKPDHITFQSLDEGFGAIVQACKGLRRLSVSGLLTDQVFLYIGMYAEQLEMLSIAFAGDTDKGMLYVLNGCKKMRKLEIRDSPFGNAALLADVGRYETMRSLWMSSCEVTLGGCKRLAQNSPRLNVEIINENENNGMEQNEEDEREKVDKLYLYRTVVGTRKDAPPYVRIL
B3: Auxin-responsive protein IAA12 (Arabidopsis thaliana (Mouse-ear cress)), Q38830 (parent)
chain: B1 chain
partner: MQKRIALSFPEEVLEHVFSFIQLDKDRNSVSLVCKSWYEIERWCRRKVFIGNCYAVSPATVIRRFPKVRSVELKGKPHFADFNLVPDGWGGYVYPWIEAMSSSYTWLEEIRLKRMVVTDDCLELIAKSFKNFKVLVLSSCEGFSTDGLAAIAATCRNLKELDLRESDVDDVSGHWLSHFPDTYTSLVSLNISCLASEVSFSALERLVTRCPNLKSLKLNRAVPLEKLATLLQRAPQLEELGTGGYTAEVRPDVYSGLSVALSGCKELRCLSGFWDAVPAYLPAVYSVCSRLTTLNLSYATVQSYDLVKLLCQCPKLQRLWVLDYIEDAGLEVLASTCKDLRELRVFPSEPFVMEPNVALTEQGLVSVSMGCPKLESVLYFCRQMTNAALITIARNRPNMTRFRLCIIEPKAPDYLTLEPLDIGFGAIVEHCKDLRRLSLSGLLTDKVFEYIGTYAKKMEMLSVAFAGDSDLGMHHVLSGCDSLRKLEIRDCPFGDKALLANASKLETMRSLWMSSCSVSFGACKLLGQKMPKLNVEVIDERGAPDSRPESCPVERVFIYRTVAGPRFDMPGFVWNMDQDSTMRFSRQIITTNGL

Variants of: B1
Conditions: with grh1_arath GRH1, Q9ZR12
For MRGVSELEVGKSNLPAESELELGLGLSLGGGAWKERGRILTAKDFPSVGSKRSAESSSHQGASPPRSSQVVGWSPIGLHRMNSLVNNQAMKAARAEEGDGEKKVVKNDELKDVSMKVNPKVQGLGFVKVNMDGVGIGRKVDMRAHSSYENLAQTLEEMFFGMTGTTCREKVKPLRLLDGSSDFVLTYEDKEGDWMLVGDVPWRMFINSVKRLRIMGTSEASGLAPRRQEQKDRQRNNPV [P74S], the “effect of a mutation on the interaction” value was “decreasing interaction”.

Variants of: B2
Conditions: with afb3_arath AFB3, Q9LPW7
For MRGVSELEVGKSNLPAESELELGLGLSLGGGAWKERGRILTAKDFPSVGSKRSAESSSHQGASPPRSSQVVGWSPIGLHRMNSLVNNQAMKAARAEEGDGEKKVVKNDELKDVSMKVNPKVQGLGFVKVNMDGVGIGRKVDMRAHSSYENLAQTLEEMFFGMTGTTCREKVKPLRLLDGSSDFVLTYEDKEGDWMLVGDVPWRMFINSVKRLRIMGTSEASGLAPRRQEQKDRQRNNPV [P74S], the “effect of a mutation on the interaction” value was “decreasing interaction”.

Variants of: B3
Conditions: with tir1_arath TIR1, Q570C0
In the case of MRGVSELEVGKSNLPAESELELGLGLSLGGGAWKERGRILTAKDFPSVGSKRSAESSSHQGASPPRSSQVVGWSPIGLHRMNSLVNNQAMKAARAEEGDGEKKVVKNDELKDVSMKVNPKVQGLGFVKVNMDGVGIGRKVDMRAHSSYENLAQTLEEMFFGMTGTTCREKVKPLRLLDGSSDFVLTYEDKEGDWMLVGDVPWRMFINSVKRLRIMGTSEASGLAPRRQEQKDRQRNNPV [P74S], the “effect of a mutation on the interaction” value is reported as “decreasing interaction”.
